The text below walks through data of publication PMC8126837 (Proceedings of the National Academy of Sciences of the …, 2021).

Where a chain is given by its changes, count along the chain named. A value given as a limit tells only on which side of the number the result lay.

B1: WNb 67 (VHH)
VHH: QVQLQESGGGLVQPGGSLRLSCAVSGFTLDYYAIGWFRQAPGKEREGVSCISSSGGSTNYADSVKGRFTISRDNATNTVYLQMNSLKPEDTAVYYCAAIAATYYGGSYYYQCPHYGMDYWGKGTQVTVSS
B2: WNb 41 (VHH)
VHH: B1 VHH with T76K, S85G, G105S, Y115D
B3: WNb 1 (VHH)
VHH: QVQLQESGGGLVQAGGSLRLSCAASGRTFDRYAMGWFRQVPGKGLEWVSGIYSDGYTYYADSVKGRFTISRDNAKNTVYLQMNSLKPEDTAVYYCAADRMDGSSWPERDFGSWGQGTQVTVSS
B4: WNb 33 (VHH)
VHH: QVQLQESGGGLVQPGGSLRLSCAASGFTFSSYLMGWARQVPGKGLEWVAGIYSDGSTYYADSVKGRFIISRDNAKNTVYLQMNSLKPEDTAVYYCAKDRMEGSTWPERDLGSWGQGTQVTVSS
B5: WNb 6 (VHH)
VHH: B4 VHH with L33A, A37F, A49S, I68T, V78L, M100L, T104S, W105R, L110F
B6: WNb 13 (VHH)
VHH: B3 VHH with A14P, R27F, D30S, R31S, Y56S, A97T, D101A, S104R
B7: WNb 63 (VHH)
VHH: B3 VHH with A14P, R27F, D30R, A33L, F37A, Y56S, S104T
B8: WNb 22 (VHH)
VHH: B4 VHH with L33A, V48L, A49S, I68T, E101D, T104V, L110F
B9: WNb 68 (VHH)
VHH: B4 VHH with Y58H, D61N, I68T, E101A, T104R, L110F, S112F
B10: WNb 52 (VHH)
VHH: B4 VHH with T28I, L33A, A49S, I68T, E88K, M100L, L110F
B11: WNb 54 (VHH)
VHH: B4 VHH with G26R, L33A, A49S, T104V, L110F
B12: WNb 9 (VHH)
VHH: B4 VHH with L33A, A49S, A60G, I68T, E101A, T104S, L110F
B13: WNb 60 (VHH)
VHH: B4 VHH with A37F, I68T, K97T, E101D, T104S, L110F
B14: WNb 11 (VHH)
VHH: B4 VHH with P14A, G16D, F27G, L110F
B15: WNb 8 (VHH)
VHH: B4 VHH with L33A, A49S, I68T, M100L, G102S, T104S, L110F
B16: WNb 45 (VHH)
VHH: B3 VHH with A14P, R27F, D30S, R31S, Y56S, D101E
B17: WNb 35 (VHH)
VHH: B4 VHH with L33A, A49S, S56T, I68T, K97A, L110F
B18: WNb 14 (VHH)
VHH: B4 VHH with L33A, A49S, T104S, L110F
B19: WNb 58 (VHH)
VHH: B3 VHH with A14P, R27F, D30S, R31S, Y56S, S104R
B20: WNb 29 (VHH)
VHH: QVQLQESGGGLVQPGGSLRLSCAFSGRTFSMYAMGWFRQAPGKEREFVAVIDDGGGRTYYADSVKGRFTISRDNAKNTVYLQMNSLKTEDTAVYCCAADMGFGYTIWADSYDYWGQGTQVTVSS
B21: WNb 59 (VHH)
VHH: QVQLQESGGGLVQPGGSLRLSCAASGGTLDYYAIGWFRQAPGKEREGVSCIMSSGGPTYFAGSVKGRFTISRDNAKNTVYLQMNSLKPEDTAVYYCAADPHGFDCSPSGGMDYWGKGTQVTVSS
B22: WNb 26 (VHH)
VHH: QVQLQESGGGLVQAGGSLRLSCVVSGRTFSPYAMGWFRQAPGKEREFVAGMSWSSGKYYADSVKGRFTISRDGAKNAVYLQMNSLKPEDTAVYYCGAGGEGYSRGRVNLQPDFWGQGTQVTVSS
B23: WNb 31 (VHH)
VHH: QVQLQESGGGLVQAGDSLRLSCTASGRALNTYTVAWWRQAPGNEREFVASIIWSSGAAWYADAVKGRFTISRDNAKNTVDLQMTSLKPEETAIYFCAVGQWEGRDTWYTSYDYWGQGTQVTVSS
B24: WNb 17 (VHH)
VHH: QVQLQESGGGLVQPGGSLRLSCAASGSIFSINVMGWYRQAPGKQRELVAAITSVGSTNYADSVKGRFTISRDNAENTVYLQMNSLKPEDTAVYYCNAVSTFTQAMGGSPEHYWGQGTQVTVSS
B25: WNb 61 (VHH)
VHH: QVQLQESGGGLVQPGGSLNISCASNGFTLDFYAIGWFRQAPGKEREGVSCISRSGSNINYAESLKGRATISRDNAKNTIYLQMSNLRTEDTAVYYCAATPSGVATAQGPCDLTRWYDNWGQGTQVTVSS
B26: WNb 34 (VHH)
VHH: QVQLQESGGGLVEAGDSLRLSCAASGRTFSRYAMGWFRQAPGKEREFVAAVSWNGGNTYYADSVKGRFTISRDNAKNTLYLQMNSLKPEDTAVYYCAAGGEPVVVIKLRNANEYDFLGQGTQVTVSS
B27: WNb 24 (VHH)
VHH: B26 VHH with E13Q, D16E, N112D
B28: WNb 70 (VHH)
VHH: QVQLQESGGGLVQPGGSLNISCASNGFTLDFYAIGWFRQAPGKEREGVSCISSSGGSSKYSDSVKGRFTISRDNAKNTVYLQMNSLQPEDTAVYYCAAQMGSSEYCPIFIPGEGMDYWGKGTQVTVSS
B29: WNb 3 (VHH)
VHH: B28 VHH with N19R, I20L, S24A, N25S, F31Y, S58T, K59N, S61A, Q87K, E104R
B30: WNb 4 (VHH)
VHH: B28 VHH with N19R, I20L, S24A, N25S, F31Y, S58T, K59N, S61A, E104R, I110T
B31: WNb 25 (VHH)
VHH: QVQLQESGGGLVQAGGSLRLSCVTSGLTFSRAAMGWFRQAPEKEREFVASIHWRGLNIAYADSVKGRFTISRDDAKNTLYLQMNSLKTEDTAVYYCAAIPFYYFDHISPFSRAAAYWGQGTQVTVSS
B32: WNb 62 (VHH)
VHH: QVQLQESGGGLVQAGGSLRLSCTASRRTFSTCVMGWARQVPGKGLEWVSGIYSDGSTYYADSVKGRFTISRDNAKNTVYLQMNSLKPEDTAVYYCNLDGRYENLEDDYWGQGTQVTVSS
B33: WNb 5 (VHH)
VHH: QVQLQESGGGLVQAGGSLRLSCAASGRTFSRYAIGWFRQAPGKEREGVSCISPSGGSTNYADSVKGRFTISRDNAKNTVYLQMNSLKPEDTAVYYCAASTPSYHYCSGYVSEYDYWGQGTQVTVSS
B34: WNb 30 (VHH)
VHH: QVQLQESGGGLVQPGGSLRLSCVASGITLDYYAIGWFRQAPGKEREGVSCLSSSDGSTYYADSVKGRFTMSRDNVKNTVYLQMNSLKPEDTAVYYCATNPLTVVDGTFHLTCLDEYDYGGQGTQVTVSS
B35: WNb 69 (VHH)
VHH: QVQLQESGGGLVQPGGSLRLSCAASGFTLDYYGIGWFRQAPGKEREGVSCISASGTSTKYVNSVKGRFTISRDNAKNTVYLQMNSLKPEDTAVYYCAAISGSYYYTSLHPVEYDSWGQGTQVTVSS
B36: WNb 46 (VHH)
VHH: B35 VHH with L11Q, K43Q, C50S, A53T, K59N, V61A, S115Y
B37: WNb 49 (VHH)
VHH: B35 VHH with C50G, K59N, V61A, N62D, I70V, G101A
B38: WNb 20 (VHH)
VHH: QVQLQESGGGLVQPGGSLRLSCAASGFTLEHYAIGWFRQAPGKEREGVSCISNSGGRTNYADSVKGRFTISRDNAKNTVYLQMNSLKPEDTAVYYCAADLGVVERLCPAHPGSYEYDYWGQGTQVTVSS
B39: WNb 27 (VHH)
VHH: QVQLQESGGGLVEAGDSLRLSCAASGRTFSRYAMGWFRQAPGKEREFVAAVSWNGGNTYYADSVKGRFTISRDNAKNTLYLQMNSLKPEDTARYYCVADRGESYYYNRDSEYEWWGQGTQVTVSS
B40: WNb 32 (VHH)
VHH: QVQLQESGGGLVQAGGSLGLSCAASGRPLNSYSMAWFRQAPGKEREFVASIGRSDGLSKYNDFVKDRFTLSRGNAKTTLLLQMNNLKVEDTAVYYCSAALWDGWATDINEYDYRGQGTQVTVSS

One test concerns the target T1, SARS-CoV-2 receptor-binding domain (RBD), wild type (SARS-CoV-2, UniProt P0DTC2, DyLight 488 (NHS ester, about 1.9 dye/protein) in the FRET assay only). The test is described as follows: cell-based or functional assay.
B1 returned an other of at most 80 nM.

Take B2: the other is at most 80 nM.

A further test addresses T1, SARS-CoV-2 receptor-binding domain ….
Assay: not given
On to B3, for which the binding result is reported as “binds”.

As for B4, the binding result is recorded as “binds”.

With B5, the binding result is recorded as “binds”.

Turning to B6, the binding result is listed as “binds”.

Regarding B7, the binding result is “binds”.

Turning to B8, the binding result is recorded as “binds”.

Take B9: the binding result is recorded as “binds”.

Take B10: the binding result is given as “binds”.

As to B11, the binding result is listed as “binds”.

For B12, the binding result was “binds”.

For B13, the binding result was “binds”.

As to B14, the binding result was “binds”.

As for B15, the binding result was “binds”.

For the molecule B16, the binding result is “binds”.

Turning to B17, the binding result is on record as “binds”.

Take B18: the binding result is “binds”.

Regarding B19, the binding result is “binds”.

Consider B20, for which the binding result is “binds”.

Regarding B21, the binding result is “binds”.

Take B22: the binding result was “binds”.

For the molecule B23, the binding result is given as “binds”.

On to B24, for which the binding result was “binds”.

On to B25, for which the binding result is reported as “binds”.

Take B26: the binding result is given as “binds”.

In the case of B27, the binding result was “binds”.

As to B28, the binding result is “binds”.

B29: the binding result was “binds”.

As to B30, the binding result is recorded as “binds”.

As to B31, the binding result was “binds”.

Regarding B32, the binding result is recorded as “binds”.

Regarding B33, the binding result is reported as “binds”.

Regarding B34, the binding result is reported as “binds”.

As for B35, the binding result is “binds”.

In the case of B36, the binding result was “binds”.

Turning to B37, the binding result is on record as “binds”.

B38: the binding result is “binds”.

Regarding B39, the binding result is “binds”.

For the molecule B40, the binding result is listed as “binds”.
